Assay results reported in publication PMC7802366 (The Journal of Cell Biology, 2021).
Blank lines part the entries; values can stand above or below the binder they belong to.

Tests used:
[1] = biological target: p150^GLUED subunit of dynactin, endogenous (human (endogenous in HEK-293), UniProt Q14203-1 1-1278); assay: pull-down
[2] = biological target: dynein heavy chain (DHC), native (human (endogenous in HEK-293), UniProt Q14204 1-4646); assay: pull-down

Sequence of p150^GLUED subunit of dynactin, endogenous (Q14203 whole entry): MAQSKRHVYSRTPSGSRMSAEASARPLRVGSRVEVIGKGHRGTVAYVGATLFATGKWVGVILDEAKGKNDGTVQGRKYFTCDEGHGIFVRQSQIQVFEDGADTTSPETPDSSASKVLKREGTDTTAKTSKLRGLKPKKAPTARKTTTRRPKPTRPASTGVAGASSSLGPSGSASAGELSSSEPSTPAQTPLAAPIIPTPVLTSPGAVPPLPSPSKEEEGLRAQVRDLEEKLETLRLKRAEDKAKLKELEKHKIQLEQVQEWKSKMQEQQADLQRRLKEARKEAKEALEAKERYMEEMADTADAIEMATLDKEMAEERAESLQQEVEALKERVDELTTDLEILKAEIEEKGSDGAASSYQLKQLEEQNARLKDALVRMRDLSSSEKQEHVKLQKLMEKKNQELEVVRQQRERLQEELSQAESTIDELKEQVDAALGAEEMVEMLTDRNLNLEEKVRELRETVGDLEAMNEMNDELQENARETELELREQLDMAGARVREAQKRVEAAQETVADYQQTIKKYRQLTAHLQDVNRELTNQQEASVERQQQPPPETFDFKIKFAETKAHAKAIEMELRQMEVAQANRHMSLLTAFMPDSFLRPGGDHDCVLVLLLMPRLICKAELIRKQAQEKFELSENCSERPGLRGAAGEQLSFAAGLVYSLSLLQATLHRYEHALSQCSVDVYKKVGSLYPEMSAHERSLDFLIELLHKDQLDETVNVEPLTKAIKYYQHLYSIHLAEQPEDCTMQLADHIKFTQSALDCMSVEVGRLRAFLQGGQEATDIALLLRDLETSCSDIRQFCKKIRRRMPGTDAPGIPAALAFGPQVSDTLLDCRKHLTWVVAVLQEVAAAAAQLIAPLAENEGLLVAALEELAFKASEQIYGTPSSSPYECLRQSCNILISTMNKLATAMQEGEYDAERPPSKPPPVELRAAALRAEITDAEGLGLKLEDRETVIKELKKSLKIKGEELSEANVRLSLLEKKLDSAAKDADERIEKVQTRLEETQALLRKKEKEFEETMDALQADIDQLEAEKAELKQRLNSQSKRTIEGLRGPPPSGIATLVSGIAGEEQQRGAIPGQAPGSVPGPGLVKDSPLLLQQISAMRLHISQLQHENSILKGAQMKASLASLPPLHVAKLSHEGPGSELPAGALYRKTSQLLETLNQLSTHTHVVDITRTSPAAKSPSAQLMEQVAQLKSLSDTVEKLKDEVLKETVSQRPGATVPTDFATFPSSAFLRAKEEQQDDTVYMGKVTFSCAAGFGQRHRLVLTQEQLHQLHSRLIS

binding result [1]: binds
B1: His-SEPT9 NTE domain (aa 1–283) (domain or fragment, human, UniProt Q9UHD8-1 1-283, looked up)
chain: MKKSYSGGTRTSSGRLRRLGDSSGPALKRSFEVEEVETPNSTPPRRVQTPLLRATVASSTQKFQDLGVKNSEPSARHVDSLSQRSPKASLRRVELSGPKAAEPVSRRTELSIDISSKQVENAGAIGPSRFGLKRAEVLGHKTPEPAPRRTEITIVKPQESAHRRMEPPASKVPEVPTAPATDAAPKRVEIQMPKPAEAPTAPSPAQTLENSEPAPVSQLQSRLEPKPQPPVAEATPRSQEATEAAPSCVGDMADTPRDAGLKQAPASRNEKAPVDFGYVGIDS

binding result [1]: binds
binding result [2]: binds
B2: His-SEPT9 (recombinant full-length SEPT9 isoform 1) (natural protein, human, UniProt Q9UHD8-1 1-586, looked up)
chain: MKKSYSGGTRTSSGRLRRLGDSSGPALKRSFEVEEVETPNSTPPRRVQTPLLRATVASSTQKFQDLGVKNSEPSARHVDSLSQRSPKASLRRVELSGPKAAEPVSRRTELSIDISSKQVENAGAIGPSRFGLKRAEVLGHKTPEPAPRRTEITIVKPQESAHRRMEPPASKVPEVPTAPATDAAPKRVEIQMPKPAEAPTAPSPAQTLENSEPAPVSQLQSRLEPKPQPPVAEATPRSQEATEAAPSCVGDMADTPRDAGLKQAPASRNEKAPVDFGYVGIDSILEQMRRKAMKQGFEFNIMVVGQSGLGKSTLINTLFKSKISRKSVQPTSEERIPKTIEIKSITHDIEEKGVRMKLTVIDTPGFGDHINNENCWQPIMKFINDQYEKYLQEEVNINRKKRIPDTRVHCCLYFIPATGHSLRPLDIEFMKRLSKVVNIVPVIAKADTLTLEERVHFKQRITADLLSNGIDVYPQKEFDEDSEDRLVNEKFREMIPFAVVGSDHEYQVNGKRILGRKTKWGTIEVENTTHCEFAYLRDLLIRTHMQNIKDITSSIHFEAYRVKRLNEGSSAMANGMEEKEPEAPEM

binding result [1]: binds
binding result [2]: binds
B3: His-SEPT9 G domain (aa 283–586) (domain or fragment, human, UniProt Q9UHD8-1 283-586, looked up)
chain: SILEQMRRKAMKQGFEFNIMVVGQSGLGKSTLINTLFKSKISRKSVQPTSEERIPKTIEIKSITHDIEEKGVRMKLTVIDTPGFGDHINNENCWQPIMKFINDQYEKYLQEEVNINRKKRIPDTRVHCCLYFIPATGHSLRPLDIEFMKRLSKVVNIVPVIAKADTLTLEERVHFKQRITADLLSNGIDVYPQKEFDEDSEDRLVNEKFREMIPFAVVGSDHEYQVNGKRILGRKTKWGTIEVENTTHCEFAYLRDLLIRTHMQNIKDITSSIHFEAYRVKRLNEGSSAMANGMEEKEPEAPEM
